Test: label from the status in PepcDB records
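Note: failed if final PepcDB status was selected cloned or expressed and not failed if soluble or beyond.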

Sequence | protein production
MAGATDRDGWKVERGDDSWTVPGYIDLKKLGKGGAGRVMIARHAGTGRNVAIKYLNEELCSKVEFRTALRAEARLLGGLTSPHVTRLYEYVEAEQGAAIVMELVYGAALRTLLKKEGSTDIEAALVVLKGSLLGLAAAHGVGVVHRDYKPENVLVNWDGQTKLVDFGISARTGDRHNLRGTCAYMPPEQWKLEAATPAGDVYAATATLYECVTGVRPFEGPEPWDFQRQHVDEPVPMDRVPEEVRALVRHGMAKDPALRPPSALDFLRELEWAAENAYGPDWEERGQSRLAAVAAALVPLAISRLDARLVGSSAELARTVLTARRRSRLRRRGDVLTGAAAVAVVGLLSLMPSGWAAGGAEGHAGAHAQAVTRLDARKDTGSATEARGTEHGDTAESDPDSDRAGTSGAQGGGGHGDGGAGLAPADGGTRSDSGSGGGAGDSGTDSPDDGNNTVERNGGTENGGTENGGTENGGTENGGTENGGTENGGTENGGTENGGTENGGTENGGTENGGTENGGTENGGTENGGTENGGTENGGTENGGTENGGTENGGTENGGTENGGTENGGTENGGTENGGTENGGTENGGTDNGGTDNGGTDNGGTDARHGHSNAGTSDGDPASTGGTDSGNSAGGTGTGTGSGSTSAVTPRQGDPAAVEGEPG | failed
MAANNRSDHGSDENTRLYNPYQNYEVPINKSQYLYKLPTSPEFLFTEEALRQRRSWGENLTFYTGTAYLGGSVAGASVGVITGVKSFESGDTTKLKINRILNSSGQTGRTWGNRIGIIGLVYAGIESGIVAATDRDDVWTSVVAGLGTGAVCRAARGVRSAAVAGALGGLAAGAVVAGKQIVKRYVPI | failed
MFAIRRRCRPRPGQFQHGWSGLPTHTVPQAGSIAPIGRVRPSSVGNVRPTPECNVLPSFGRSSTNPSFPMEPIEDLDVLAEDEVRQREADGEVDEDLDRVKHGYDATAGDKQVYIETYGCQMNVNDSGIVASVLEESGYGLTRDQAAADVVLLNTCAIRENAERKIRARLSMLRSEKEKRDGELMLGVLGCMAERLREKLLEQEDLVDVVVGPDAYRDLPQLLYEADATGQAAVNVELSKQETYEDIQPVRYDSNGVSAYVSIMRGCDNMCTFCVVPFTRGREESRPVTTILSEVARLAEEGYKEVTLLGQNVNSYHYTDADGTSVSFAELVDRVSRVSPEMRVRYSTSHPKDCTDDLLKVHRDRPNVCNYIHLPVQHGNTEVLDRMRRTYTREEYLALTERAKELCPGVSLSTDLIAGFCGETEAQHEDTLSLMEEVRYDHAYMFKYSERPQTYAARKYEDDVPEDTKQRRLEEIIELQNQHAKESNEAEVGRVHTVLVEGPSKKSDAQFFGRTDTNKGVVFDREDYEKGDYVRVRIEDCTSSTLLGTAIEKTTLEAAARTDSITTSPAVA | failed
MQFLGRSISKSIRPSLNSTARKSWVLSSQQFLSTSSTESSSRTRGGGGGNRAEKSSEEWPRPMEVPYQPKIANSIDLIGYVHQPVQFDSTLDGKFWAGTVISHEPSSDSKSESDSSSNFWIPVLFEGDLAHTANSYLKKNDRVHITGQILGDVIQSGANSDQAHVQLFKSFHGSFSHQVMVRDLHYIEGSKAMPKVLPTLDQNEGVLKHSASVQRGREFGTNLWFDLVDKPNEWCDYREMKQNGSVNPKHPDFKKKDGSQALWLNNAPTEILSELKDVKFDIPKYAKQPKAGEESWKDLVDNMNKWWDNRVDKRTPKSPDFKHKETGVGLWLSDSPSWVLEKLPPPKSKTSDIYGVQEMF | failed
ALRERSEGLVLIGRRHLRSNNSWLHNVPALTGGTNRCTLHIHPEDAERLGLTDGAPVRVRGAGGAVTAPVEVTDGIRRGVVSLPHGWGHDRPGTRMSHAALDPGVNVNQLLDGSLLDPLSGNAVLNGVPVELTRT | failed
MKKAIQFGAGNIGRGFIGGLLVKSGYHVVFADVNEYILNSINKDKKYTIHIRDVECIDEVIDNISAVSSIKEEIIDEIVQAEIITTAVGPLVLTKIASTIAKGIKARKEKGLTSNLNIIACENAIYASSSLKEEVLKYLNKEEVEYLEMYVGFPNCSVDRIVPPGKNENPLDVTVENFYEWNVEKQGFKGEIPTIVGMNLADNLMAYIERKLFTLNTGHAITAYIGYLKGYKTIEESIKDKFICDIVKSAMVESGEGLIKKYNFDSEVHYKYIDKILNRFKNPYLNDDVLRVGREPLRKLSDKDRLIKPLMTAKSYGLSVDNLILGIGAALHYNNSEDTQSVELQELIKSIGVKKAVAKIANISNDEELLNNIEKSYIFMKNL | not failed
MNPLKAGDIAPKFSLPDQDGEQVNLTDFQGQRVLVYFYPKAMTPGCTVQACGLRDNMDELKKAGVDVLGISTDKPEKLSRFAEKELLNFTLLSDEDHQVCEQFGVWGEKSFMGKTYDGIHRISFLIDADGKIEHVFDDFKTSNHHDVVLNWLKEHA | not failed
MNGDRTGLGSTRLGRIAIAGGKQLLGKINSARKNFPMKIFLLLLGFYTANALATILGQTGDWDVLVAGIVVAAIEGIGMLMYKKPSSSMFSGKLQSFVVFMNFWKAGVCLGLFVDAFKLGS | failed
MESLSIIFRWFVGLRSVGSSLGRKPDQTEETTLTTKLDIAPANDRELVVARIIDAPRENVYRCWTDTRLLTQWFSPKPWTTPRAEMDMRTGGSSLVIMADPDGNEFPNPGVFLEVIPGKKIIFTDAYTQAWEPSEKPFMTGVLTFEDEGEGRTRYIARVRHWSVADRERHEAMGFHVGWGQCTDQLEDLARTL | failed
MISVVIPLFNKAPHIVRAVESVLEQSSPADEIIVVDDGSTDGGGELLLPYVAKHGVRLIRQENAGVSVARNHGVNLAASDYVAFLDADDFWLPNHIATLRRLIDNYPEASLFSTALIIERDGRQWRSKSTYSDGWEGVVQDFFTEYLRRFALVSSTTSCVRKKDFCSIGGFPVGVKYGEDFICWMKMALFYRVAHAEVVTAVYCLDAVNRTDQLQETDVLAPLQFIAKLLQSNELDNAQRVGLAQLFDHISFSTGARFRINSNLNGVNAIRNLSWEMGHYRVSLLMSALRFTPSLLLQAAKRFRYRQVSVV | failed
MGPAVKKASKGILSDVLKCLTNNIKHMREFTLAVVDKMVAGLSDFVDATHLLKPASNRSD | failed
AVDLNKENRDPKYVESIVNRSQKIVDKLGLTDAKVAEDVCNVIANRYFELNDIYEIRDAKVKAVKESGLTGDAKNEALKAAENEKDAALYRSHFAFPASLSLFLNEEQIEAVKDGMTYGVVKVTYEATLDMIPSLKEEEKVQIYAWLVEAREFAMDAENSNKKHAAFGKYKGRINNYLAKRGYNLTKEREEWAKRVKARGGTL | not failed
MLMVFALLVSLAFASYHPDDAVVLRSADWSEVVLNPQSAQADGPVQNVLGLLGAQLAEACVPGFIGYGVLLISGLLMVWGYAVFRHASLRRLLYPSLLTAFSAFILSCVVGWVHHTVDAPLRAWAGLVGIGTAGWMQNVFGEVGSFILLLLAGAVLLLLVVDHDIQRTVDRVIRAARRIGAGVSAAGAYIRDQWSRARAHAPEPKATSPASDPSSSASASGSPSASSPEPPSSPPAEESTSSPPPARTRPEDSGAQTPSVRRNDLFRPGRDPAPSATDDNTASPEPAPDSSARTSDADPPEDDAPKDIPDETTASTPAEESPATDSPPPSRPADENASSDEPAAPAPDEPPPDASDGPDDDVSMTIQEQVEEETTDEIERTAELPDDFEYEPPSLDLLDESVDTDPTINREELEENKRVLLDKLDMYNIEIEEINAVVGPTVTRYELTPAPGIKVSRIKSLEDDLAMAMAAPGIRMIAPIPGKSAVGVEIPNRNRELVRLRDVIGTRKFQDTDLKLPLPLGKNIEGEVHVGDLATMPHLLIAGATGSGKSVGLNSIITGLIYACHPANLRFVIIDPKKIELQQYTALETQFVAVPEDIDQTVITDIDEASGVLKSVEREMETRYDLLSDASVRNITGYNEKFQAGELDPTEGHRHMPYLVVVVDELADLMMAAGDDVEGPISRLAQMARAVGIHLILATQRPSVDVVTGVIKANFPSRIAFEVASRVDSRTILDQGGAEDLVGNGDMLFLSGSDLKRLQGPFVSVEEVEEVVDYVADQPGVTPYTLPSLQDAGHGPDETLGVEDTDEKFEEAARVIVRRQQGSVSLLQRKLAVGYTRAARIVDQLEEAGIVGPFNGTKARDVLVDDEQALDDLLHGEDADEADPEEA | failed
MATKLVIAIVQDKDANYLSDQFIDQNVRATKLSTTGGFLQSGNTTFMIGIEEERVPEVLEIIKKASHTREEFMTPSVNMDVNMEGTTAYPIKVQVGGATVLVLPVDQFERF | not failed
AENNMVRLSRIIIDPERLEEYNAYLKEEIEVSMRLEPGVLVLYAVAEKERPNHVTILEIYADEAAYKSHIATPHFKKYKEGTLDMVQMLELIDATPLIPGLKMK | not failed

From a protein production outcome set (Wang et al. 2014)
